Results from publication PMC7442826, “The mechanism of activation of the actin binding protein EHBP1 by Rab8 family members” (Nature Communications, 2020).
Blank lines part the entries; values can stand above or below the binder they belong to.

B1: Rab8a_(1-176) (human Rab8a G-domain) (domain or fragment, UniProt P61006 1-176, looked up)
chain: MAKTYDYLFKLLLIGDSGVGKTCVLFRFSEDAFNSTFISTIGIDFKIRTIELDGKRIKLQIWDTAGQERFRTITTAYYRGAMGIMLVYDITNEKSFDNIRNWIRNIEEHASADVEKMILGNKCDVNDKRQVSKERGEKLALDYGIKFMETSAKANINVENAFFTLARDIKAKMDKK
notes: Rab8a G-domain, human, residues 1-176; in the stopped-flow assays to the fluorescent mantGppNHp (non-covalent); also called GppNHp Rab8a_(1-176); Rab8a_(GppNHp); source: preparatively loaded with GppNHp or mantGppNHp
B6: EHBP1 CH (calponin homology) domain (domain or fragment, human)
chain: GRKPNASQSLLVWCKEVTKNYRGVKITNFTTSWRNGLSFCAILHHFRPDLIDYKSLNPQDIKENNKKAYDGFASIGISRLLEPSDMVLLAIPDKLTVMTYLYQIRAHFSGQ
notes: EHBP1 central CH domain, human; also called CH domain; CH^EHBP1
B10: EHBP1 bMERB domain (bMERB_(1060-1212), full-length bMERB domain) (domain or fragment)
chain: not shown
notes: EHBP1 bMERB domain, human, residues 1060-1212, all three predicted helices; PDB 6ZSI and 6ZSJ hold the M1116A and F1120A mutants of the full-length bMERB domain; also called bMERB^EHBP1; full-length construct

How the values were obtained:
Conditions in all cases: both partners purified
[1] = target: T1, EHBP1 bMERB domain R1189A (human, UniProt Q8NDI1-1 1060-1212, R1189A); test: ITC; 500 µM GppNHp Rab titrated into 50 µM bMERB domain; 20 mM Hepes 7.5, 50 mM NaCl, 1 mM MgCl2, 1 mM TCEP; 25 °C; one-site-binding model
T1 construct: EHBP1 bMERB domain, human, residues 1060-1212 as the wild-type construct; numbers on isoform 1 (Q8NDI1-1); source: E. coli BL21 DE3-RIL, purified
T1 sequence (Q8NDI1 1060-1212 R1189A): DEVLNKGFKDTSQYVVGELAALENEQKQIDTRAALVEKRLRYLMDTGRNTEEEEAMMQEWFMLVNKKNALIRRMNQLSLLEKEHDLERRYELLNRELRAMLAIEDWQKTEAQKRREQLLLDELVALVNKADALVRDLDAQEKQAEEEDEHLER

[2] = target: T2, EHBP1 bMERB domain L1156S (human, UniProt Q8NDI1-1 1060-1212, L1156S); test: as above
T2 construct: EHBP1 bMERB domain, human, residues 1060-1212 as the wild-type construct; numbers on isoform 1 (Q8NDI1-1); source: E. coli BL21 DE3-RIL, purified
T2 sequence (Q8NDI1 1060-1212 L1156S): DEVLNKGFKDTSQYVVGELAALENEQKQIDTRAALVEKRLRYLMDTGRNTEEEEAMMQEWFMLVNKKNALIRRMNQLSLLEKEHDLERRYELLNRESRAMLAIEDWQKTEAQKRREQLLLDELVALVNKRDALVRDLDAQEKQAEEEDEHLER

[3] = target: T3, EHBP1 bMERB domain V1186A (human, UniProt Q8NDI1-1 1060-1212, V1186A); test: as above
T3 construct: EHBP1 bMERB domain, human, residues 1060-1212 as the wild-type construct; numbers on isoform 1 (Q8NDI1-1); source: E. coli BL21 DE3-RIL, purified
T3 sequence (Q8NDI1 1060-1212 V1186A): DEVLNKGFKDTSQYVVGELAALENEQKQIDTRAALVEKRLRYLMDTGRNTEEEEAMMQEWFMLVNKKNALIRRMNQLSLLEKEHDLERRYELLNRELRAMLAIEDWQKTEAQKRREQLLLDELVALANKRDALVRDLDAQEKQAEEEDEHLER

[4] = target: T4, EHBP1 bMERB domain N1187A (human, UniProt Q8NDI1-1 1060-1212, N1187A); test: as above
T4 construct: EHBP1 bMERB domain, human, residues 1060-1212 as the wild-type construct; numbers on isoform 1 (Q8NDI1-1); source: E. coli BL21 DE3-RIL, purified
T4 sequence (Q8NDI1 1060-1212 N1187A): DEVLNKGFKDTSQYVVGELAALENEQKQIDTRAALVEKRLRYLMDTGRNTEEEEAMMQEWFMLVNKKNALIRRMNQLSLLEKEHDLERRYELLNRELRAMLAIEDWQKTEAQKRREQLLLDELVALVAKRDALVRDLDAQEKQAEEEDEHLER

[5] = target: T5, EHBP1 bMERB domain L1179S (human, UniProt Q8NDI1-1 1060-1212, L1179S); test: as above
T5 construct: EHBP1 bMERB domain, human, residues 1060-1212 as the wild-type construct; numbers on isoform 1 (Q8NDI1-1); source: E. coli BL21 DE3-RIL, purified
T5 sequence (Q8NDI1 1060-1212 L1179S): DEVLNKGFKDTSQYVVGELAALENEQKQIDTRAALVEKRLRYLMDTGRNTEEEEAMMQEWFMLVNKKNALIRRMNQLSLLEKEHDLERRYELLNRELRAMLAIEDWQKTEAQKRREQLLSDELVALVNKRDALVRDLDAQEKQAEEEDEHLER

[6] = target: T6, EHBP1 bMERB domain L1182S (human, UniProt Q8NDI1-1 1060-1212, L1182S); test: as above
T6 construct: EHBP1 bMERB domain, human, residues 1060-1212 as the wild-type construct; numbers on isoform 1 (Q8NDI1-1); source: E. coli BL21 DE3-RIL, purified
T6 sequence (Q8NDI1 1060-1212 L1182S): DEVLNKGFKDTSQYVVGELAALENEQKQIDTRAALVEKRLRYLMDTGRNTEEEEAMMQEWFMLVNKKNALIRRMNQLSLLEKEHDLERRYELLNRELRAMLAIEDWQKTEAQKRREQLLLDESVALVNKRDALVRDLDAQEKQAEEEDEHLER

[7] = target: B1; test: crystal structure; sitting-drop vapor diffusion, 20 °C; 300–400 µM 1:1 complexes
[8] = target: B1; test: ITC; 500 µM GppNHp Rab titrated into 50 µM bMERB domain; 20 mM Hepes 7.5, 50 mM NaCl, 1 mM MgCl2, 1 mM TCEP; 25 °C; one-site-binding model
[9] = target: B10; test: ITC; 600–800 µM CH domain titrated into 40–60 µM bMERB domain; 20 mM Hepes 7.5, 150 mM NaCl, 1 mM TCEP; 25 °C; one-site-binding model
[10] = target: F-actin (rabbit skeletal muscle actin, polymerized) (rabbit, UniProt P68135 1-377); test: co-sedimentation; 10 µM F-actin with 0–60 µM EHBP1 CH domain, 1 h RT; 5 mM Tris-HCl pH 7.5, 0.18 mM CaCl2, 15 mM KCl, 1 mM DTT, 1.8 mM NaN3; 100,000 g 1 h 4 °C; densitometry of SDS-PAGE
[11] = target: B10; test: stopped-flow fluorescence kinetics; dissociation: complex of Cy3 labeled CH with full-length bMERB domain (2 µM) mixed with a 20-fold excess of unlabeled CH domain; CH buffer
[12] = target: B10; test: stopped-flow fluorescence kinetics; association: 0.5 µM Cy3 labeled CH domain with 2–16 µM full-length bMERB domain; koff from the y-axis intercept; CH buffer, 25 °C
[13] = target: B6; test: ITC; 600–800 µM CH domain titrated into 40–60 µM bMERB domain; 20 mM Hepes 7.5, 150 mM NaCl, 1 mM TCEP; 25 °C; one-site-binding model
[14] = target: T7, Rab10_(1-175_T73E) (phosphomimetic Rab10) (human, UniProt P61026 1-175, T73E); test: SEC; analytical SEC, Superdex 75 10/300 GL; 110 µM bMERB domain mixed with 121 µM GppNHp Rab (1:1.1); 20 mM Hepes 7.5, 50 mM NaCl, 1 mM MgCl2, 2 mM DTE; room temperature
T7 construct: Rab10 G-domain, human, residues 1-175, phosphomimetic switch II mutant; also called Rab10_(T73E); 10_(T73E)
T7 sequence (looked up): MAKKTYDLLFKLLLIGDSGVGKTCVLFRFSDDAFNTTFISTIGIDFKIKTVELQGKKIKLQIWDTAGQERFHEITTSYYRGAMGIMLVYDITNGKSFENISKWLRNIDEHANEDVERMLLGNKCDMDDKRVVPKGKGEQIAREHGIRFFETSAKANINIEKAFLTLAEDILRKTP

[15] = target: B1; test: stopped-flow fluorescence kinetics; dissociation: complex of mantGppNHp Rab8a_(1-176) with the bMERB domain (2 µM) mixed with a 20-fold excess of unlabeled GppNHp Rab8a_(1-176); 25 °C
[16] = target: B1; test: stopped-flow fluorescence kinetics; association: 0.5 µM mantGppNHp Rab8a_(1-176) with 1.5–8 µM bMERB domain, pseudo first order; koff from the y-axis intercept; Rab buffer, 25 °C
[17] = target: T8, Rab8a_(1-176_T72E) (phosphomimetic Rab8a) (human, UniProt P61006 1-176, T72E); test: ITC; 500 µM GppNHp Rab titrated into 50 µM bMERB domain; 20 mM Hepes 7.5, 50 mM NaCl, 1 mM MgCl2, 1 mM TCEP; 25 °C; one-site-binding model
T8 construct: Rab8a G-domain, human, residues 1-176, phosphomimetic switch II mutant; also called Rab8a_(T72E)
T8 sequence (looked up): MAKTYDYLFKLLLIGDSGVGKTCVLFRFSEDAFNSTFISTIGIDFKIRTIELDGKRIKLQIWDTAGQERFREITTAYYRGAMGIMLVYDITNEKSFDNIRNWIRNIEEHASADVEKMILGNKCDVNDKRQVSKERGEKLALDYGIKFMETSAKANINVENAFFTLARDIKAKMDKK

[18] = target: T9, Rab10_(1-175) (human Rab10 G-domain) (human, UniProt P61026 1-175); test: as above
T9 construct: Rab10 G-domain, human, residues 1-175
T9 sequence (looked up): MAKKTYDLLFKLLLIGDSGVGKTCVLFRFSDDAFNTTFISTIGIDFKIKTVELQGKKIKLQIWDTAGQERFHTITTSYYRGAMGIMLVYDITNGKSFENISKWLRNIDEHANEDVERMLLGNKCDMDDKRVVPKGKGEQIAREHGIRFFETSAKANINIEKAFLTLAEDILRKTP

Binder: B1
fold reduction in binding affinity against the wild-type bMERB domain [1]: 20 fold | fold reduction in affinity against the wild-type bMERB domain [2]: 47 fold | fold reduction in binding affinity against the wild-type bMERB domain [3]: > 30 fold | fold reduction in binding affinity against the wild-type bMERB domain [4]: 5 fold | fold decrease in binding affinity against the wild-type bMERB domain [5]: 10 fold | fold decrease in binding affinity against the wild-type bMERB domain [6]: 10 fold

binding result [7]: binds
B2: EHBP1 full-length bMERB domain M1116A (domain or fragment)
chain: not shown
notes: EHBP1 full-length bMERB domain, human, residues 1060-1212 as the wild-type construct; numbers on isoform 1 (Q8NDI1-1); also called bMERB_(M1116A); source: E. coli BL21 DE3-RIL, purified

binding result [7]: binds
B3: EHBP1 full-length bMERB domain F1120A (domain or fragment)
chain: not shown
notes: EHBP1 full-length bMERB domain, human, residues 1060-1212 as the wild-type construct; numbers on isoform 1 (Q8NDI1-1); also called bMERB_(F1120A); source: E. coli BL21 DE3-RIL, purified

Kd [8]: 300 nM
B4: EHBP1 bMERB domain lacking the N-terminal helix (helices 2-3) (domain or fragment)
chain: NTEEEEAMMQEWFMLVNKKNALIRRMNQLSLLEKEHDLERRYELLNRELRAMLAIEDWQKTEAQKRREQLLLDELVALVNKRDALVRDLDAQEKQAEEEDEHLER

binding result [8]: binds
B5: EHBP1 bMERB domain Q1176A (domain or fragment)
chain: not shown
notes: EHBP1 bMERB domain, human, residues 1060-1212 as the wild-type construct; numbers on isoform 1 (Q8NDI1-1); source: E. coli BL21 DE3-RIL, purified

Binder: B6
Kd [9]: 1200 nM | stoichiometry N [9]: 1 | Kd [10]: 9340 ± 1860 nM

koff [11]: 117 s⁻¹ | Kd [12]: 3750 to 4230 nM | koff [12]: 104 s⁻¹ | kon [12]: 2.76e+07 M⁻¹ s⁻¹
B7: Cy3 labeled EHBP1 CH domain (domain or fragment, human)
chain: GRKPNASQSLLVWCKEVTKNYRGVKITNFTTSWRNGLSFCAILHHFRPDLIDYKSLNPQDIKENNKKAYDGFASIGISRLLEPSDMVLLAIPDKLTVMTYLYQIRAHFSGQ
modifications: Cy3 on the N-terminus
notes: EHBP1 central CH domain, human; also called Cy3-CH; source: E. coli BL21 DE3-RIL, purified; labelled with Cy3-thioester

Kd [13]: 780 nM
B8: EHBP1 bMERB_(H1-2) (bMERB domain lacking the C-terminal helix) (domain or fragment)
chain: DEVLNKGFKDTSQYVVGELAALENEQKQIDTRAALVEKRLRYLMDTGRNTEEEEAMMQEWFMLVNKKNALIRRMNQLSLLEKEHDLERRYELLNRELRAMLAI

fold reduction in binding affinity against the wild-type CH domain [9]: > 40 fold
B9: EHBP1 CH domain D532A (domain or fragment, human)
chain: GRKPNASQSLLVWCKEVTKNYRGVKITNFTTSWRNGLSFCAILHHFRPDLIDYKSLNPQDIKENNKKAYDGFASIGISRLLEPSDMVLLAIPAKLTVMTYLYQIRAHFSGQ
notes: EHBP1 CH domain, human; numbers on isoform 1 (Q8NDI1-1); source: E. coli BL21 DE3-RIL, purified

Binder: B10
binding result [14]: binds | koff [15]: 13.8 s⁻¹ | Kd [16]: 480 nM | koff [16]: 13.4 s⁻¹ | kon [16]: 2.79e+07 M⁻¹ s⁻¹ | Kd [8]: 310 nM | binding result [17]: binds | binding result [18]: binds
